How the values were obtained:
[1] = biological target: TβR-V/LRP-1 in mink lung epithelial cells (Mv1Lu cells) (mink); test: inhibition of 10 nM 125I-IGFBP-3 affinity labeling (binding and DSS cross-linking) of TβR-V on Mv1Lu cells
[2] = biological target: acidic pH binding sites of MEF cells; test: competition with 125I-α2M* binding to MEF cells at pH 5.5
[3] = biological target: acidic pH binding sites of Mv1Lu cells; test: inhibition of 125I-α2M* binding to Mv1Lu cells at pH 5 or 6
[4] = biological target: IGF-I receptor of Mv1Lu cells (mink); test: cell-based or functional assay
[5] = biological target: LRP-1 in mouse embryonic fibroblasts (MEF cells) (mouse) (UniProt Q91ZX7); test: co-immunoprecipitation with anti-annexin VI IgG from lysates of MEF cells carrying cell surface-bound 125I-α2M* (1 nM, pH 7.4)
[6] = biological target: acidic pH binding sites of Mv1Lu cells; test: inhibition of 125I-α2M* binding to Mv1Lu cells at pH 6
[7] = biological target: insulin receptor of Mv1Lu cells (mink); test: cell-based or functional assay

Sequence of LRP-1 in mouse embryonic fibroblasts (MEF cells) (mouse) (Q91ZX7 20-4545): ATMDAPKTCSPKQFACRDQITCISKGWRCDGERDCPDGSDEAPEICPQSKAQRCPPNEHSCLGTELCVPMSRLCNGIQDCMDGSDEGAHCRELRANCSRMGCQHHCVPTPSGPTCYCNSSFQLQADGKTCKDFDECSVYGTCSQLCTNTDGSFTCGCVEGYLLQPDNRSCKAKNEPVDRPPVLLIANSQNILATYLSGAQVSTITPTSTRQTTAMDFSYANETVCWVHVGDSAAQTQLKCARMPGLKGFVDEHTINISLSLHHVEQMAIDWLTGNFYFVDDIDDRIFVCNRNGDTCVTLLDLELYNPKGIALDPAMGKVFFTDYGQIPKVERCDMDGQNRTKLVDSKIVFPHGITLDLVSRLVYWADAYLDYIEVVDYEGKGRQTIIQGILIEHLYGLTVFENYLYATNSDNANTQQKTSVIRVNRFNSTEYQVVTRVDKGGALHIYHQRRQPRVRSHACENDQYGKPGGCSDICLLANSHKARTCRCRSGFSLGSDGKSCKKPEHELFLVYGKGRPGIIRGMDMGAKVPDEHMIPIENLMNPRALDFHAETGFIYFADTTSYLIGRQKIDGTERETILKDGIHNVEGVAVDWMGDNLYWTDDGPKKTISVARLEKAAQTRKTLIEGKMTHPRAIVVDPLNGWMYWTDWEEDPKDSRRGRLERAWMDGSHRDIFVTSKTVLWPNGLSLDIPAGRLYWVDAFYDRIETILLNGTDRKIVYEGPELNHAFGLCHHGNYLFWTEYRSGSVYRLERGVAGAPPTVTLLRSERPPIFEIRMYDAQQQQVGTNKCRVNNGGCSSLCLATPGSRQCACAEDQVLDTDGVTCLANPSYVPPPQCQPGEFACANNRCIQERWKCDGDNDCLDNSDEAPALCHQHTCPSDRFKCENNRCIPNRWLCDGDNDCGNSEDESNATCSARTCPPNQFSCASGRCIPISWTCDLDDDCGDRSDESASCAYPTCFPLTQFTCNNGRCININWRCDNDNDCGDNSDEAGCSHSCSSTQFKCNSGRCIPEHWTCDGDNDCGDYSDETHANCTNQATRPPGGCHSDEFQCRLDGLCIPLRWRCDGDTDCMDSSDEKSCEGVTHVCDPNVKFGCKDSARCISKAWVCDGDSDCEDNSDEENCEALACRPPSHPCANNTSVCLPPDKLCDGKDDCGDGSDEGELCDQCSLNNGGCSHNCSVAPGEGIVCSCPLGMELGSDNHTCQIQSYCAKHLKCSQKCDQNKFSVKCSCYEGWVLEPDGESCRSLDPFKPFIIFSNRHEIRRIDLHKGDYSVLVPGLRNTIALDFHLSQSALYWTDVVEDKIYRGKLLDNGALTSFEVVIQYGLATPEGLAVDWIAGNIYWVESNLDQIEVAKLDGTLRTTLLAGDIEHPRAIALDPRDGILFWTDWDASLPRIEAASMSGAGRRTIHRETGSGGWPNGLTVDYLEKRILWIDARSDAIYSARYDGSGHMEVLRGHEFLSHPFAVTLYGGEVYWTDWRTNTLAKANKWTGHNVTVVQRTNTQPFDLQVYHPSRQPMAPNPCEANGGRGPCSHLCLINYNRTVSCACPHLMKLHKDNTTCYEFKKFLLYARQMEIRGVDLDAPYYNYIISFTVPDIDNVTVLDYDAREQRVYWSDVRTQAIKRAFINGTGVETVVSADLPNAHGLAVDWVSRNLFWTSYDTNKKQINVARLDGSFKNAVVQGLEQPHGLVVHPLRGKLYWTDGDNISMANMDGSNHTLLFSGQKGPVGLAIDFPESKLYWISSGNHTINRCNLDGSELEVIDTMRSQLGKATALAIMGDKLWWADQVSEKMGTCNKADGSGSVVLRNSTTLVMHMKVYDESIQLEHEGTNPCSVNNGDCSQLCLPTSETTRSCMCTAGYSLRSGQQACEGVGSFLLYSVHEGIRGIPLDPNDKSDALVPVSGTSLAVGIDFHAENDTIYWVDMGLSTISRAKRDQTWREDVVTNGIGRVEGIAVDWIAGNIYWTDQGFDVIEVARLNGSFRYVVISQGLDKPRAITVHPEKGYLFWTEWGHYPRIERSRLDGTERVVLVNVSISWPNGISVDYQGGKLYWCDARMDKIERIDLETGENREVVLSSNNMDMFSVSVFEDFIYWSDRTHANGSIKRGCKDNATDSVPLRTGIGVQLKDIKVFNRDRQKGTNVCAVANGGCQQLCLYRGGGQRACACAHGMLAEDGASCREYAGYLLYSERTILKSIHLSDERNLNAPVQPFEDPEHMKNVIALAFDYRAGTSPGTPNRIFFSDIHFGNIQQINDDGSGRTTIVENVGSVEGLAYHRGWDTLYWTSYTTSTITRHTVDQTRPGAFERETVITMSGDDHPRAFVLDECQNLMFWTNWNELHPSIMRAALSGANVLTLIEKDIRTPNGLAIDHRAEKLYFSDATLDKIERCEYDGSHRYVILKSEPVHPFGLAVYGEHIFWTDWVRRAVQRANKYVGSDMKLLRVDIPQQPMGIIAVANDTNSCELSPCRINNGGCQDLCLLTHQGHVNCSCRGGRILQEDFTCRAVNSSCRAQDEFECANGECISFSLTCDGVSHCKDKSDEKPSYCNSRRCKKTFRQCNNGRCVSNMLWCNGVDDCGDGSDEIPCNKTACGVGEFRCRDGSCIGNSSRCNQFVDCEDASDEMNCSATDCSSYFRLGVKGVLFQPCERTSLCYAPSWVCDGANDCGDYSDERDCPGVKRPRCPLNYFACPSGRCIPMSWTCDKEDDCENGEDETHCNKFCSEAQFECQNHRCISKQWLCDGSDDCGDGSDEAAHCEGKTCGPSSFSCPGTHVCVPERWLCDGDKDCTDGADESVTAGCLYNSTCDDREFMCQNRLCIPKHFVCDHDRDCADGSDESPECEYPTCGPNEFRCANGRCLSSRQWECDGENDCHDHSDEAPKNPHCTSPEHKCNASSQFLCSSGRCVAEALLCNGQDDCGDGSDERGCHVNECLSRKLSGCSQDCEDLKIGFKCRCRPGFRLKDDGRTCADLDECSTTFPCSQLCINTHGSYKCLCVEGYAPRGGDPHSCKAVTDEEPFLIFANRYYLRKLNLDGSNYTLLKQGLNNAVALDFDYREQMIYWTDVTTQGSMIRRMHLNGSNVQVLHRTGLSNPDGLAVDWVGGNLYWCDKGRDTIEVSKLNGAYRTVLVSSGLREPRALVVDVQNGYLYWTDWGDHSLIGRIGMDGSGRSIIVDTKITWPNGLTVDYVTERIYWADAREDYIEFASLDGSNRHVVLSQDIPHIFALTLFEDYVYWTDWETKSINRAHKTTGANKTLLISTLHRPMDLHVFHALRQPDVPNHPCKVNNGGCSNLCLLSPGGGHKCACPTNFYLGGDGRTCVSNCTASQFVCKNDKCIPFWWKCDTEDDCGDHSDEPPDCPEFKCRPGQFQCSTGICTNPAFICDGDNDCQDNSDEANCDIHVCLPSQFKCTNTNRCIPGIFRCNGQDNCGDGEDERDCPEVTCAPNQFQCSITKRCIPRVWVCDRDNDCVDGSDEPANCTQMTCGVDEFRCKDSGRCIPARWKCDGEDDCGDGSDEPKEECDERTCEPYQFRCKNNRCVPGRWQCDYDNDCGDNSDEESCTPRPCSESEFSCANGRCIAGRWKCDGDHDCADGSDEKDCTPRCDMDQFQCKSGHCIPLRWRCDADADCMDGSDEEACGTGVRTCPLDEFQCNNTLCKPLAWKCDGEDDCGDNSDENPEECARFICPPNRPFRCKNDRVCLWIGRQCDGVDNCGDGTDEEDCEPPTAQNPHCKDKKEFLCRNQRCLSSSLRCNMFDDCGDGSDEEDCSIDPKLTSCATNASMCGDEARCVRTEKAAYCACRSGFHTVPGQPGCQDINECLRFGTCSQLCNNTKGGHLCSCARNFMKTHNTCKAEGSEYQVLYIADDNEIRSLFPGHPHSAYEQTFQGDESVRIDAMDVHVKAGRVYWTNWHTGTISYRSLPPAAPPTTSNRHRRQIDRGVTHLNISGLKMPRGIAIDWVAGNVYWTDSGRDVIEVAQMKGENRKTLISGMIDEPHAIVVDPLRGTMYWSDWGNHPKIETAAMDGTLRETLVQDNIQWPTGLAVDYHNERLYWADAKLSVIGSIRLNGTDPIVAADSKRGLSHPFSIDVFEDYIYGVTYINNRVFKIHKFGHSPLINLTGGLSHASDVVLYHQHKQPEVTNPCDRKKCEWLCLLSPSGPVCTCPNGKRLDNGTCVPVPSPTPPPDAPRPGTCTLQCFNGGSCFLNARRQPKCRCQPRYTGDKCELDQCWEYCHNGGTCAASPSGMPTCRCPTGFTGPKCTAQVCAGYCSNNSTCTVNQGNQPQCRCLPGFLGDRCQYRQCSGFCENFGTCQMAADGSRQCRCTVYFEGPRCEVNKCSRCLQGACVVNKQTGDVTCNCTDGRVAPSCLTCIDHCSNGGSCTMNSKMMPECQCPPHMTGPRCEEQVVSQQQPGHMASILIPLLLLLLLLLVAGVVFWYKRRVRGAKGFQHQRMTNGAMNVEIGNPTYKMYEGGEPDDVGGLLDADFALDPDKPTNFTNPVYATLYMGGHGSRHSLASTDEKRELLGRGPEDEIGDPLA

human receptor-associated protein (RAP) (from UniProt P30533 35-357) (ligand)
IC50 [1]: 5 µg/mL

native α2M (human) (from UniProt P01023 24-1474) (ligand)
IC50 [2]: 150 nM

bovine lactoferrin (from UniProt P24627 20-708) (ligand)
IC50 [3]: 50 nM

(Q^3A^4Y^15L^16) IGF-I (from UniProt P05019 49-118) (ligand)
ED50 for blocking IGFBP-3-induced growth inhibition in Mv1Lu cells [4]: 0.3 nM

cell surface annexin VI of mouse embryonic fibroblasts (MEF and PEA-13 cells) (from UniProt P14824 2-673) (receptor)
percent of LRP-1-bound 125I-α2M* co-immunoprecipitated by anti-annexin VI IgG [5]: 40%

human low density lipoprotein (LDL) (from UniProt P04114 28-4563)
IC50 [6]: 5 µg/mL

insulin (ligand)
ED50 for blocking IGFBP-3-induced inhibition of DNA synthesis in Mv1Lu cells [7]: 1 nM

human transferrin (from UniProt P02787 20-698) (ligand)
IC50 [3]: 500 nM
